From patent publication US20200102347A1 (AUCTUS BIOLOGIES, published 2020)
Residue numbers refer to the chain shown, from its start. In names and notes the source's numbering stands. No end group written: not given here. *: point of attachment. RhodamineB = CCN(CC)c1ccc2c(-c3ccccc3C(=O)*)c3ccc(=[N+](CC)CC)cc-3oc2c1

T1: RPtag(small) Nd2, Cd4 (Thermoanaerobacter tengcongensis)
T1 peptide: RhodamineB-KIPNFIPAELKLITK

T2: MaturePDGF-β_NterminalPeptide
T2 construct: an N-terminal G was added and is left out of the numbering; also called PDGF-β peptide
T2 peptide: RhodamineB-GSLGSLTIAEPAMIAE

T3: NativeRPtag(large)_with_Tags_and_Cys (Thermoanaerobacter tengcongensis)
T3 construct: Unlabeled in anisotropy assays; coupled through the engineered N-terminal Cys to SulfoLink agarose or maleimide plates in column, pull-down and ELISA assays
T3 chain: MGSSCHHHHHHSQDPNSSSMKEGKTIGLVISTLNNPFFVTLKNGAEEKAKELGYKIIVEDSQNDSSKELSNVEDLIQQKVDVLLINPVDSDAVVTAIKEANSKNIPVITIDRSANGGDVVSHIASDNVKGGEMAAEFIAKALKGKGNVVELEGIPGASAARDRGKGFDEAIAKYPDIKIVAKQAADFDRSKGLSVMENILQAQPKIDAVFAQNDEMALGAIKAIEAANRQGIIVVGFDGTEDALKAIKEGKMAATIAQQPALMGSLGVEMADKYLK

T4: RPtag(large) f137d (Thermoanaerobacter tengcongensis)
T4 construct: also called F137D RPtag(large)
T4 chain: T3 chain with F137D

B1: RPtag(large) H122L, A253R double mutant (designed binder)
chain: T3 chain with H122L, A253R
notes: Unlabeled against the rhodamine peptides; also called RPtag (large) h1221, a253r; double mutant RPtag(large)
B2: RPtag(small) Nd2, p5a, e18a (peptide)
peptide: RhodamineB-KIANFIPAELKLITKANVQ
modifications: also: also used unlabeled as competitor
notes: Rhodamine labeled in the Kd assays; also called RPtag(small) (tight)
B3: Nterminally_tagged_RPtag(small)Nd8,Cd4(fast)_tagRFP (other)
chain: MGSSPAELKLITKGSENLYFQGGSMVSKGEELIKENMHMKLYMEGTVNNHHFKCTSEGEGKPYEGTQTMRIKVVEGGPLPFAFDILATSFMYGSRTFINHTQGIPDFFKQSFPEGFTWERVTTYEDGGVLTATQDTSLQDGCLIYNVKIRGVNFPSNGPVMQKKTLGWEANTEMLYPADGGLEGRSDMALKLVGGGHLICNFKTTYRSKKPAKNLKMPGVYYVDHRLERIKEADKETYVEQHEVAVARYCDLPSKLGHKLNGSSGHHHHHHHH
notes: also called tagRFP containing an N-terminal RPtag (small) Nd8Cd4 tag

Key:
RPtag(small) Nd2, Cd4 = target: T1, RPtag(small) Nd2, Cd4; experiment: fluorescence anisotropy, 2 nM rhodamine Nd2Cd4
Procedure: (§1) After the incubation, fluorescence anisotropy was measured, and the resultant curves were fit with the equation f=y0+(ymax−y0)*(Ptot+x+Kd−sqrt((Ptot+x+Kd)\hat{ }2−4*Ptot*x))/(2*Ptot), where y0 is the baseline anisotropy, ymax is the maximum anisotropy, Ptot is the fixed concentration of labeled peptide used, x is the variable concentration of protein used, and Kd is the measured Kd. […] Buffer was 50 mM Tris pH 8.0, 0.005% Tween20.

[1] = target: T2, MaturePDGF-β_NterminalPeptide; experiment: fluorescence anisotropy, 20 nM rhodamine PDGF-β N-terminal peptide
Procedure: as §1

[2] = target: T5, PDGF-β dimer (recombinant, purified and refolded mature PDGF-β) (Homo sapiens (Human), UniProt P01127 82-190); experiment: fluorescence anisotropy; 100 nM FITC-labeled RPtag large double mutant, unlabeled PDGF-β dimer titrated, 1 h at room temperature
T5 construct: also called mature PDGF-β dimer
Procedure: After 1 h incubation at room temperature, fluorescence anisotropy was measured, and the resultant curves were fit to a standard binding equation.

[3] = target: T3, NativeRPtag(large)_with_Tags_and_Cys; experiment: fluorescence anisotropy; KCl (3M)
[4] = target: T3, NativeRPtag(large)_with_Tags_and_Cys; experiment: fluorescence anisotropy; PG (50%)
[5] = target: T3, NativeRPtag(large)_with_Tags_and_Cys; experiment: fluorescence anisotropy; BME (10%)
[6] = target: T3, NativeRPtag(large)_with_Tags_and_Cys; experiment: fluorescence anisotropy; NaCl (3M)
[7] = target: T3, NativeRPtag(large)_with_Tags_and_Cys; experiment: fluorescence anisotropy; CaCl2 (3M)
[8] = target: T3, NativeRPtag(large)_with_Tags_and_Cys; experiment: fluorescence anisotropy; DMSO (20%)
[9] = target: T3, NativeRPtag(large)_with_Tags_and_Cys; experiment: fluorescence anisotropy; EtOH (20%)
[10] = target: T3, NativeRPtag(large)_with_Tags_and_Cys; experiment: fluorescence anisotropy; MeOH (20%)
[11] = target: T3, NativeRPtag(large)_with_Tags_and_Cys; experiment: fluorescence anisotropy; MgCl2 (3M)
[12] = target: T3, NativeRPtag(large)_with_Tags_and_Cys; experiment: fluorescence anisotropy; NH4SO4 (3M)
[13] = target: T3, NativeRPtag(large)_with_Tags_and_Cys; experiment: fluorescence anisotropy; ribose (3M)
[14] = target: T3, NativeRPtag(large)_with_Tags_and_Cys; experiment: fluorescence anisotropy; DTT (100 mM)
[15] = target: T3, NativeRPtag(large)_with_Tags_and_Cys; experiment: fluorescence anisotropy; Tween20 (2%)
[16] = target: T3, NativeRPtag(large)_with_Tags_and_Cys; experiment: fluorescence anisotropy; MnSO4 (10 mM)
[17] = target: T3, NativeRPtag(large)_with_Tags_and_Cys; experiment: fluorescence anisotropy; acetone (20%)
[18] = target: T3, NativeRPtag(large)_with_Tags_and_Cys; experiment: fluorescence anisotropy; sorbitol (3M)
[19] = target: T3, NativeRPtag(large)_with_Tags_and_Cys; experiment: fluorescence anisotropy; NiCl2 (100 mM)
[20] = target: T3, NativeRPtag(large)_with_Tags_and_Cys; experiment: fluorescence anisotropy; glycerol (20%)
[21] = target: T3, NativeRPtag(large)_with_Tags_and_Cys; experiment: fluorescence anisotropy; TritonX-100 (2%)
[22] = target: T3, NativeRPtag(large)_with_Tags_and_Cys; experiment: fluorescence anisotropy; 50 mM Tris pH 8.0, 0.005% Tween 20, no additive
[23] = target: T3, NativeRPtag(large)_with_Tags_and_Cys; experiment: calculated from koff and Kd; 50 mM Tris pH 8.0, 0.005% Tween 20, no additive
[24] = target: T3, NativeRPtag(large)_with_Tags_and_Cys; experiment: fluorescence anisotropy, competitor chase; 50 mM Tris pH 8.0, 0.005% Tween 20, no additive
[25] = target: T3, NativeRPtag(large)_with_Tags_and_Cys; experiment: fluorescence anisotropy; No Additive; No Additive; 100 mM Tris pH 8.0, 0.005% Tween 20 (Table 3)
[26] = target: T3, NativeRPtag(large)_with_Tags_and_Cys; experiment: competition fluorescence anisotropy; 1 µM RPtag large and 1 µM rhodamine PDGF-β N-terminal peptide (the displaced ligand), unlabeled Nd2,p5a,e18a titrated, 1 h; 50 mM Tris pH 8.0, 0.005% Tween20
Procedure: The curves were fit with the equation f=y0+(ymax−y0)*(Ptot+x+Kd−sqrt((Ptot+x+Kd)\hat{ }2−4*Ptot*x))/(2*Ptot), where y0 is the baseline anisotropy, ymax is the maximum anisotropy, Ptot is the fixed concentration of labeled peptide used, x is the variable concentration of protein used, and Kd is the measured Kd. […] The curves were fit empirically to a 4 parameter logistic regression. In both cases, the buffer was 50 mM Tris pH 8.0, 0.005% Tween20. Curves were fit in 4 independent trials each, and the data was averaged for display. Points are mean±SEM (n=3).

[27] = target: T3, NativeRPtag(large)_with_Tags_and_Cys; experiment: fluorescence anisotropy; No Additive
[28] = target: T3, NativeRPtag(large)_with_Tags_and_Cys; experiment: fluorescence anisotropy, association kinetics
[29] = target: T3, NativeRPtag(large)_with_Tags_and_Cys; experiment: calculated from koff and Kd; no additive; calculated in the text from koff and Kd
Bovine Serum Albumin = target: T6, Bovine Serum Albumin (bovine, UniProt P02769 25-607); experiment: fluorescence anisotropy; 1 nM rhodamine native RPtag (small), BSA titrated
T6 construct: also called BSA
Procedure: Kd's were calculated according to the equation f=y0+(ymax−y0)*(Ptot+x+Kd−sqrt((Ptot+x+Kd)\hat{ }2−4*Ptot*x))/(2*Ptot), where y0 is the baseline anisotropy, ymax is the maximum anisotropy, Ptot is the fixed concentration of labeled peptide used, x is the variable concentration of protein used, and Kd is the measured Kd.

[30] = target: T3, NativeRPtag(large)_with_Tags_and_Cys; experiment: fluorescence anisotropy, chase with 0.1 mM unlabeled native RPtag small, first order fit; no additive; first order fit of the dissociation traces (n=15)
Source text: Data processing was done as in panel a, except the red fits were to the single exponential decay equation y=y0+A*exp(−b*t).
Panel e is a graph of the initial rates of the traces represented in d. […] Data are mean±SE (n=3).

RPtag(large) f137d = target: T4, RPtag(large) f137d; experiment: fluorescence anisotropy (FIG. 14)
Procedure: Resultant curves were fit with the equation f=y0+(ymax−y0)*(Ptot+x+Kd−sqrt((Ptot+x+Kd)\hat{ }2−4*Ptot*x))/(2*Ptot), where y0 is the baseline anisotropy, ymax is the maximum anisotropy, Ptot is the fixed concentration of labeled peptide used, x is the variable concentration of protein used, and Kd is the measured Kd. […] Buffer was 50 mM Tris pH 8.0, 0.005% tween20.

[31] = target: T3, NativeRPtag(large)_with_Tags_and_Cys; experiment: immobilized RPtag(large) column; bound in 3 M NaCl, eluted with 3 M imidazole
Procedure: Briefly, columns, as described above, were first equilibrated with 10 mL 100 mM Tris pH 8.0, 3 M NaCl, 0.005% Tween20. […] The column was then washed with 10 mL of the same buffer. Finally, bound target molecules were eluted with 10 mL of 100 mM Tris pH 8.0, 3 M imidazole, 0.005% Tween20.

T5 sequence (P01127 82-190): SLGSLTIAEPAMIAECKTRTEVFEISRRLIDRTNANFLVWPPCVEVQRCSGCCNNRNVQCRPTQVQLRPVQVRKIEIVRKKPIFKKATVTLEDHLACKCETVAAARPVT
T6 sequence (P02769 25-607 limits assumed): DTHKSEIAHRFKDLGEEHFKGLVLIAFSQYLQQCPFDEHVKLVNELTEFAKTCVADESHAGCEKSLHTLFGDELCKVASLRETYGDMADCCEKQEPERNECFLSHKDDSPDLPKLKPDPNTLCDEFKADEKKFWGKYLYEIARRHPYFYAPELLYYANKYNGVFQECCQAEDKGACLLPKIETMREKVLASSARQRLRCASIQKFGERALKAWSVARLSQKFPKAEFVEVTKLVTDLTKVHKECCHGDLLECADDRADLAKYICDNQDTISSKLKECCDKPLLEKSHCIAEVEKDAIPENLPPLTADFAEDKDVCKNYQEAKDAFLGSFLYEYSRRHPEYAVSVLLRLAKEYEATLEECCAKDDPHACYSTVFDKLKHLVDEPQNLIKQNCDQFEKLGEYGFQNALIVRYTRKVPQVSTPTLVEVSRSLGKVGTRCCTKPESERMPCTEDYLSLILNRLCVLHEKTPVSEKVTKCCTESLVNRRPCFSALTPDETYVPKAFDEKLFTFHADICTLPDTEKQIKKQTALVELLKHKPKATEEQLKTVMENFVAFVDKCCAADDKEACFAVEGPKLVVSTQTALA

Row | Binder | Kd [3] [nM] | Kd [4] [nM] | Kd [5] [nM] | Kd [6] [nM] | Kd [7] [nM] | Kd [8] [nM] | Kd [9] [nM] | Kd [10] [nM] | Kd [11] [nM] | Kd [12] [nM] | Kd [13] [nM] | Kd [14] [nM] | Kd [15] [nM] | Kd [16] [nM] | Kd [17] [nM] | Kd [18] [nM] | Kd [19] [nM] | Kd [20] [nM] | Kd [21] [nM] | Kd [22] [nM] | also measured
1 | B1 | – | – | – | – | – | – | – | – | – | – | – | – | – | – | – | – | – | – | – | – | Kd (RPtag(small) Nd2, Cd4): 3.1 nM; Kd [1]: 1500 nM; Kd [2]: 75 nM
2 | B2 | 0.011 | 49 | 6.7 | < 0.001 | 150 | 0.023 | 0.1 | 0.056 | 350 | 44 | < 0.001 | 0.073 | 4.7 | 22 | 0.019 | < 0.001 | 2.2 | < 0.001 | 0.046 | 0.047 | kon [23]: 4.67e+06 M⁻¹ s⁻¹; koff [24]: 0.000217 s⁻¹; Kd [25]: 0.037 nM; IC50 (read off the curve) [26]: ~500 nM
3 | RhodamineB-GEKIPNFIPAELKLITKENVQ (Synthetic peptide) [native RPtag(small)] | < 0.001 | 19 | 5.3 | 0.0027 | 330 | 0.17 | 0.17 | 0.11 | 124 | 1.5 | 0.023 | 0.51 | 0.49 | 160 | 0.15 | 2.5 | 3.2 | 0.034 | 0.64 | 0.21 | Kd [27]: 0.21 nM; Keq (S-S*) [28]: 1.6; kf (S to S*) [28]: 0.092 min⁻¹; kr (S* to S) [28]: 0.056 min⁻¹; kon [23]: 717000 M⁻¹ s⁻¹; kon [29]: ~767000 M⁻¹ s⁻¹; binding result (Bovine Serum Albumin): no binding; koff [24]: 0.000152 s⁻¹; koff [30]: 0.0002 s⁻¹
4 | RhodamineB-GEKIPNFIPAELKKITKENVQ (also called L14K RPtag(small)) [RPtag(small) l14k] | – | – | – | – | – | – | – | – | – | – | – | – | – | – | – | – | – | – | – | – | binding result (RPtag(large) f137d): binds
5 | B3 | – | – | – | – | – | – | – | – | – | – | – | – | – | – | – | – | – | – | – | – | binding result [31]: binds
